Source: patent publication US20120107301A1

How the values were obtained:
[1] = target: L-SIGN expressed on K562 cells (human) (UniProt Q9H2X3); assay: flow cytometry on K562/L-SIGN cells
[2] = target: recombinant human L-SIGN (human) (UniProt Q9H2X3); assay: ELISA on recombinant L-SIGN
[3] = target: recombinant human DC-SIGN (human) (UniProt Q9NNX6); assay: ELISA on recombinant DC-SIGN
Sequence of UniProt Q9NNX6 (Q9NNX6 59-404 limits assumed): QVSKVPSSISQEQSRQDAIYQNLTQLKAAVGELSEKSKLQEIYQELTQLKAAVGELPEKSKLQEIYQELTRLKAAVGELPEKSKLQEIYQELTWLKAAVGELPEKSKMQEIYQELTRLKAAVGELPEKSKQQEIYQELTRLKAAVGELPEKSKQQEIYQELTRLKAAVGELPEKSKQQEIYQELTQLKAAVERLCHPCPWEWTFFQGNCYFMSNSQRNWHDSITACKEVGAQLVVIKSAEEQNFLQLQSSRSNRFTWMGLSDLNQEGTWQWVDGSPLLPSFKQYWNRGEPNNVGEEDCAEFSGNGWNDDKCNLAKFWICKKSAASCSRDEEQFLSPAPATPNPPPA

Geo. Mean Flourecence [1]: 21.3
OD405 [2]: 2.9 OD405
OD405 [3]: 0.1 OD405
B1: additional IgG1k antibody clone A10 (antibody, from a related filing, V domains shown)
VH: EVQLQQSGPELEKPGASVKISCKASGYSFTGYNMNWVKQSNGKSLEWIGNIDPYYGDITYNQKFKGKATLTVDKSSSTAYMQLKSLTSEDSAVYYCARTATALYTMDYWGQGTSVTVSS
VL: EIVLTQSPAIMSASLGERVTMTCTASSSVSSSYLHWYQQKPGSSPKLWIYSTSNLASGVPARFSGSGSGTSYSLTISSMEAEDAATYYCHQYHRSPQTFGGGTKLEIK
